Target: D1 receptor of human renal proximal tubule cells (UniProt P21728)
Sequence (P21728 whole entry): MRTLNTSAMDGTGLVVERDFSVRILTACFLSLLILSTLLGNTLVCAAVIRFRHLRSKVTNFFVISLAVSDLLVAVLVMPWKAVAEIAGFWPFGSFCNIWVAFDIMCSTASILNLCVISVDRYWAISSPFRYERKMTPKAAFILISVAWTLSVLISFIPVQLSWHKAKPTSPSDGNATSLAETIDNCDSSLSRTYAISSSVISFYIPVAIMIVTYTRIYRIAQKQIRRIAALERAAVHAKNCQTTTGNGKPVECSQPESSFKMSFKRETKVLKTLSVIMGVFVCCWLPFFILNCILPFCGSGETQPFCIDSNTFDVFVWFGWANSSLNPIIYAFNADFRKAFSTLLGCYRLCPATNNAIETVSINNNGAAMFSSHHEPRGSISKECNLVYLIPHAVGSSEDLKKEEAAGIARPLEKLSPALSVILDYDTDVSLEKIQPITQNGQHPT

Substance: GRK4 of human renal proximal tubule cells
- serine phosphorylation of the D1 receptor (immunoprecipitation with anti D1 receptor antibody, anti-phosphoserine immunoblot) after GRK4 antisense treatment: GRK4 antisense treatment almost completely abolished the phosphorylation of the D1 receptor in fenoldopam-treated renal proximal tubule cells from hypertensive subjects to levels that are lower than basal values

Source: patent publication US20050089871
